# According to US20240270821A1, “GIP/GLP1/GCG TRI-RECEPTOR AGONISTS AND USES THEREOF” (priority 2023, published 2024):
# Changes are numbered by the printed parent chain.
# B1: Example 72 (peptide)
# chain: YXQGTFTSDFSXXLDKKAQXAFIEYLLEAGPSSGAPPPSEG
# modifications: not fully specified; synthetic construct; SITE 2: note = 2-Aminoisobutyric Acid; SITE 12: note = L-ornithine; SITE 13: note = alpha-methyl-leucine; SITE 17: note = Lysine is chemically modified through conjugation of the epsilon-amino group of the Lysine side chain with (2-[2-(2-Amino-ethoxy)-ethoxy]-acetyl)2-(gamma-Glu)
# B2: Example 787 (peptide)
# chain: B1 chain with X12Q, A29X, P31E, E40G, G41S
# modifications: synthetic construct; SITE 2: note = 2-Aminoisobutyric Acid; SITE 13: note = alpha-methyl-leucine; SITE 17: note = Lysine is chemically modified through conjugation of the epsilon-amino group of the Lysine side chain with (2-[2-(2-Amino-ethoxy)-ethoxy]-acetyl)2-(gamma-Glu)-CO-(CH2 )16-CO2H; SITE 20:
# B3: Example 782 (peptide)
# chain: B1 chain with X12Q, A29X, E40G, G41X
# modifications: synthetic construct; SITE 2: note = 2-Aminoisobutyric Acid; SITE 13: note = alpha-methyl-leucine; SITE 17: note = Lysine is chemically modified through conjugation of the epsilon-amino group of the Lysine side chain with (2-[2-(2-Amino-ethoxy)-ethoxy]-acetyl)-(gamma-Glu)-CO-(CH2) 16-CO2H; SITE 20: n
# B4: Example 775 (peptide)
# chain: B1 chain with X12Q, E40G, G41S
# modifications: synthetic construct; SITE 2: note = 2-Aminoisobutyric Acid; SITE 13: note = alpha-methyl-leucine; SITE 17: note = Lysine is chemically modified through conjugation of the epsilon-amino group of the Lysine side chain with (2-[2-(2-Amino-ethoxy)-ethoxy]-acetyl)-(gamma-Glu)-CO-(CH2) 16-CO2H; SITE 20: n
# B5: Example 771 (peptide)
# chain: B1 chain with A29G, A35X, S39G, E40G, G41S
# modifications: not fully specified; synthetic construct; SITE 2: note = 2-Aminoisobutyric Acid; SITE 12: note = L-ornithine; SITE 13: note = alpha-methyl-leucine; SITE 17: note = Lysine is chemically modified through conjugation of the epsilon-amino group of the Lysine side chain with (gamma-Glu)2-CO-(CH2)16-CO2H; SITE 20: note = 2-Am
# B6: Example 770 (peptide)
# chain: B1 chain with A29G, G34X, S39G, E40G, G41S
# modifications: not fully specified; synthetic construct; SITE 2: note = 2-Aminoisobutyric Acid; SITE 12: note = L-ornithine; SITE 13: note = alpha-methyl-leucine; SITE 17: note = Lysine is chemically modified through conjugation of the epsilon-amino group of the Lysine side chain with (gamma-Glu)2-CO-(CH2)16-CO2H; SITE 20: note = 2-Am
# B7: Example 784 (peptide)
# chain: B1 chain with X12Q, A29X, E40G, G41S
# modifications: synthetic construct; SITE 2: note = 2-Aminoisobutyric Acid; SITE 13: note = alpha-methyl-leucine; SITE 17: note = Lysine is chemically modified through conjugation of the epsilon-amino group of the Lysine side chain with (gamma-Glu)2-CO-(CH2)16-CO2H; SITE 20: note = 2-Aminoisobutyric Acid; SITE 29:
# B8: Example 779 (peptide)
# chain: B1 chain with X12Q, G34X, E40G, G41T
# modifications: synthetic construct; SITE 2: note = 2-Aminoisobutyric Acid; SITE 13: note = alpha-methyl-leucine; SITE 17: note = Lysine is chemically modified through conjugation of the epsilon-amino group of the Lysine side chain with (2-[2-(2-Amino-ethoxy)-ethoxy]-acetyl)-(gamma-Glu)-CO-(CH2) 16-CO2H; SITE 20: n
# B9: Example 796 (peptide)
# chain: B1 chain with L27I, A29X, E40G, G41S
# modifications: synthetic construct; SITE 2: note = 2-Aminoisobutyric Acid; SITE 12: note = L-ornithine; SITE 13: note = alpha-methyl-leucine; SITE 17: note = Lysine is chemically modified through conjugation of the epsilon-amino group of the Lysine side chain with (2-[2-(2-Amino-ethoxy)-ethoxy]-acetyl)-(gamma-Glu)
# B10: Example 789 (peptide)
# chain: B1 chain with X12Q, A29X, P31E, E40G, G41E
# modifications: synthetic construct; SITE 2: note = 2-Aminoisobutyric Acid; SITE 13: note = alpha-methyl-leucine; SITE 17: note = Lysine is chemically modified through conjugation of the epsilon-amino group of the Lysine side chain with (2-[2-(2-Amino-ethoxy)-ethoxy]-acetyl)-(gamma-Glu)-CO-(CH2) 16-CO2H; SITE 20: n
# B11: Example 777 (peptide)
# chain: B1 chain with X12Q, E40G, G41X
# modifications: synthetic construct; SITE 2: note = 2-Aminoisobutyric Acid; SITE 13: note = alpha-methyl-leucine; SITE 17: note = Lysine is chemically modified through conjugation of the epsilon-amino group of the Lysine side chain with (2-[2-(2-Amino-ethoxy)-ethoxy]-acetyl)-(gamma-Glu)-CO-(CH2) 16-CO2H; SITE 20: n
# B12: Example 780 (peptide)
# chain: B1 chain with X12Q, G34X, E40G, G41T
# modifications: no C-terminal amide; synthetic construct; SITE 2: note = 2-Aminoisobutyric Acid; SITE 13: note = alpha-methyl-leucine; SITE 17: note = Lysine is chemically modified through conjugation of the epsilon-amino group of the Lysine side chain with (2-[2-(2-Amino-ethoxy)-ethoxy]-acetyl)-(gamma-Glu)-CO-(CH2) 16-CO2H; SITE 20: n
# B13: Example 751 (peptide)
# chain: YXQGTXTSDXXIXLDXKAQXEFIEXLVEGGPSSGAPPPSGSE
# modifications: synthetic construct; SITE 2: note = 2-Aminoisobutyric Acid; SITE 6: note = alpha-methyl-2-fluoro-L-phenylalanine; SITE 10: note = 3-(4-Pyridyl)-L-alanine; SITE 11: note = alpha-methyl-L-serine; SITE 13: note = alpha-methyl-leucine; SITE 16: note = L-ornithine; SITE 17: note = Lysine is chemically mo
# B14: Example 752 (peptide)
# chain: B13 chain with A35E
# modifications: synthetic construct; SITE 2: note = 2-Aminoisobutyric Acid; SITE 6: note = alpha-methyl-2-fluoro-L-phenylalanine; SITE 10: note = 3-(4-Pyridyl)-L-alanine; SITE 11: note = alpha-methyl-L-serine; SITE 13: note = alpha-methyl-leucine; SITE 16: note = L-ornithine; SITE 17: note = Lysine is chemically mo
# Target: hGLP-1R (Homo sapiens, UniProt P43220)
# Test: cell-based or functional assay
# Sequence of hGLP-1R (P43220 24-463): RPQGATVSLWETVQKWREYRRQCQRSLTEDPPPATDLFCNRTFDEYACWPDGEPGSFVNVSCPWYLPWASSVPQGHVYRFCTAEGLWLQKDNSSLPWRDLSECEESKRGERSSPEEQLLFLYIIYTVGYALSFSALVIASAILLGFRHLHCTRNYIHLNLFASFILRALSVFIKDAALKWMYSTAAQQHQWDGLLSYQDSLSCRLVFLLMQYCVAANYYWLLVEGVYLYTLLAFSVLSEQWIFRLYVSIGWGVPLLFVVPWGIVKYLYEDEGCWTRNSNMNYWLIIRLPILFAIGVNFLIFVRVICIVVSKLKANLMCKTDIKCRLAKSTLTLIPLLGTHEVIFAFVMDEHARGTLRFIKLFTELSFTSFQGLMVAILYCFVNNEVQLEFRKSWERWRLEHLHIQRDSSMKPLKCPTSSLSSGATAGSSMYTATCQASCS
Binder,Relative cAMP EC50,"cAMP Rel EC50, nM (in the presence of 1% HSA)","cAMP Rel EC50, nM (1% HSA)"
B1,1.86 nM,683 nM,
B2,2.55 nM,,382 nM
B3,1.94 nM,,354 nM
B4,0.993 nM,,202 nM
B5,4.38 nM,,665 nM
B6,3.91 nM,,240 nM
B7,2.09 nM,,284 nM
B8,0.949 nM,,175 nM
B9,0.602 nM,,125 nM
B10,2.74 nM,,379 nM
B11,0.913 nM,,231 nM
B12,1.26 nM,,211 nM
B13,0.302 nM,,32.3 nM
B14,0.274 nM,,44 nM

# Target: T1, human GIP receptor (human) (UniProt P48546)
# T1 sequence (looked up): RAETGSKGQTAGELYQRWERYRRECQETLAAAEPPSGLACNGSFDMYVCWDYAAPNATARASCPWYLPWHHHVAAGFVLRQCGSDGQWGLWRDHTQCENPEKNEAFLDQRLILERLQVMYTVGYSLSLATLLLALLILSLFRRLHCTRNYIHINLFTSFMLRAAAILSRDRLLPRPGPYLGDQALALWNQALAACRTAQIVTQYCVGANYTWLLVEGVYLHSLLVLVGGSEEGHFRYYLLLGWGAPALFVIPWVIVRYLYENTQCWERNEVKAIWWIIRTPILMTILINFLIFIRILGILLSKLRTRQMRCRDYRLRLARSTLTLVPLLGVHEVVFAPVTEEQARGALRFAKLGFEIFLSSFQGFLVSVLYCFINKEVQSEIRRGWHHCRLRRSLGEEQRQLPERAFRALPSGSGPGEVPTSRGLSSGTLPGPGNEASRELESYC
# Test: cell-based or functional assay
Binder,Relative cAMP EC50,"cAMP Rel EC50, nM (in the presence of 1% HSA)","cAMP Rel EC50, nM (1% HSA)"
B1,0.202 nM,56.7 nM,
B2,0.0675 nM,,18.6 nM
B3,0.0711 nM,,15.5 nM
B4,0.105 nM,,25.8 nM
B5,0.232 nM,,44.2 nM
B6,0.244 nM,,18.2 nM
B7,0.0587 nM,,11.8 nM
B8,0.112 nM,,19.3 nM
B9,0.098 nM,,17.5 nM
B10,0.101 nM,,20.4 nM
B11,0.113 nM,,22.2 nM
B12,0.111 nM,,22.1 nM
B13,0.00759 nM,,1.27 nM
B14,0.00689 nM,,1.74 nM

# Target: human glucagon receptor (human) (UniProt P47871)
# Test: cell-based or functional assay
# Sequence of human glucagon receptor (human) (P47871 26-477): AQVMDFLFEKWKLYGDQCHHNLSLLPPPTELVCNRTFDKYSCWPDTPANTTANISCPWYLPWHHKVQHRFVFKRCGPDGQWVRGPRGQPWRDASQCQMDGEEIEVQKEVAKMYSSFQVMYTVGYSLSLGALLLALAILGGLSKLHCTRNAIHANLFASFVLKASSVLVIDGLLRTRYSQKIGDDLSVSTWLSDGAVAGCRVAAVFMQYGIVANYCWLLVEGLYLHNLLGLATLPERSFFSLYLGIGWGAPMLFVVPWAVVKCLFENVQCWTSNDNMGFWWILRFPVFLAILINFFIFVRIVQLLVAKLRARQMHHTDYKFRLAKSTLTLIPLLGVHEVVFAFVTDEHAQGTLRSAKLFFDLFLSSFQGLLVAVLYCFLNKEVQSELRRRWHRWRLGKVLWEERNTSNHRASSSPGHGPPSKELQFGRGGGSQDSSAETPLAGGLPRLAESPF
Binder,Relative cAMP EC50,"cAMP Rel EC50, nM (in the presence of 1% HSA)","cAMP Rel EC50, nM (1% HSA)"
B1,5.48 nM,1910 nM,
B2,7.81 nM,,2060 nM
B3,4.96 nM,,1380 nM
B4,4.36 nM,,724 nM
B5,5.05 nM,,955 nM
B6,5.37 nM,,390 nM
B7,5.21 nM,,711 nM
B8,4.58 nM,,1020 nM
B9,5.3 nM,,1000 nM
B10,3.3 nM,,1200 nM
B11,3.89 nM,,1320 nM
B12,4.84 nM,,1250 nM
B13,1.9 nM,,267 nM
B14,1.9 nM,,228 nM
